{"source": "paper PMC10636135", "about": "“Computational design of highly efficient thermostable MHET hydrolases and dual enzyme system for PET recycling” (Communications Biology, 2023)", "proteins": {"B1": {"name": "Est30 (1TQH scaffold; wild-type carboxylesterase) (Geobacillus stearothermophilus; G129F) (protein)", "chain": "MKIVPPKPFFFEAGERAVLLLHGFTGNSADVRMLGRFLESKGYTCHAPIYKGHGVPPEELVHTGPDDWWQDVMNGYEFLKNKGYEKIAVAGLSLGGVFSLKLGYTVPIEGIVTMCAPMYIKSEETMYEFVLEYAREYKKREGKSEEQIEQEMEKFKQTPMKTLKALQELIADVRDHLDLIYAPTFVVQARHDEMINPDSANIIYNEIESPVKQIKWYEQSGHVITLDQEKDQLHEDIYAFLESLDW", "notes": "E. coli BL21(DE3), pET-22b(+) NdeI/XhoI, C-terminal His6 tag kept, HisTrap purified"}, "B2": {"name": "Est30 (1TQH scaffold; wild-type carboxylesterase) (Geobacillus stearothermophilus; I170K) (protein)", "chain": "B1 chain with F129G, I170K", "notes": "as for B1"}, "B3": {"name": "Est30 (1TQH scaffold; wild-type carboxylesterase) (Geobacillus stearothermophilus; G129L/I170K/M126S) (protein)", "chain": "B1 chain with M126S, F129L, I170K", "notes": "as for B1"}, "B4": {"name": "Est30 (1TQH scaffold; wild-type carboxylesterase) (Geobacillus stearothermophilus; G129L/I170K) (protein)", "chain": "B1 chain with F129L, I170K", "notes": "as for B1"}, "B5": {"name": "Est30 (1TQH scaffold; wild-type carboxylesterase) (Geobacillus stearothermophilus; G129F/I170K/M126S) (protein)", "chain": "B1 chain with M126S, I170K", "notes": "as for B1"}, "B6": {"name": "Est30 (1TQH scaffold; wild-type carboxylesterase) (Geobacillus stearothermophilus) (protein)", "chain": "B1 chain with F129G", "notes": "as for B1"}, "B7": {"name": "Est30 (1TQH scaffold; wild-type carboxylesterase) (Geobacillus stearothermophilus; G129L) (protein)", "chain": "B1 chain with F129L", "notes": "as for B1"}, "B8": {"name": "LCC-ICCG (unidentified prokaryotic organism; D238C/F243I/S283C/Y127G) (protein)", "chain": "QSNPYQRGPNPTRSALTADGPFSVATYTVSRLSVSGFGGGVIYYPTGTSLTFGGIAMSPGYTADASSLAWLGRRLASHGFVVLVINTNSRFDGPDSRASQLSAALNYLRTSSPSAVRARLDANRLAVAGHSMGGGGTLRIAEQNPSLKAAVPLTPWHTDKTFNTSVPVLIVGAEADTVAPVSQHAIPFYQNLPSTTPKVYVELCNASHIAPNSNNAAISVYTISWMKLWVDNDTRYRQFLCNVNDPALCDFRTNNRHCQ"}, "B9": {"name": "FAST-PETase (Pseudideonella sakaiensis; D186H/N233K/R224Q/R280A/S121E) (protein)", "chain": "QTNPYARGPNPTAASLEASAGPFTVRSFTVSRPSGYGAGTVYYPTNAGGTVGAIAIVPGYTARQSSIKWWGPRLASHGFVVITIDTNSTLDQPESRSSQQMAALRQVASLNGTSSSPIYGKVDTARMGVMGWSMGGGGSLISAANNPSLKAAAPQAPWHSSTNFSSVTVPTLIFACENDSIAPVNSSALPIYDSMSQNAKQFLEIKGGSHSCANSGNSNQALIGKKGVAWMKRFMDNDTRYSTFACENPNSTAVSDFRTANCS"}}, "key": {"[1]": {"substrate": "O=C(O)c1ccc(C(=O)OCCO)cc1", "assay": "initial rates, TPA by HPLC, Michaelis-Menten fit", "format": "biochemical, Geobacillus stearothermophilus", "conditions": "50 mM sodium phosphate, pH 7.5, 50 °C, M3", "text": "initial rates, TPA by HPLC, Michaelis-Menten fit on Est30 (1TQH scaffold; wild-type carboxylesterase) | single variants M1 (G130L) and M3 (G130F) (Table S13) had improved catalytic efficiencies"}, "[2]": {"substrate": "O=C(O)c1ccc(C(=O)OCCO)cc1", "assay": "initial rates, TPA by HPLC, Michaelis-Menten fit", "format": "biochemical, Geobacillus stearothermophilus", "conditions": "50 mM sodium phosphate, pH 7.5, 50 °C, 10 min, 0.5 μM enzyme"}, "[3]": {"substrate": "O=C(O)c1ccc(C(=O)OCCO)cc1", "assay": "initial rates, TPA by HPLC, Michaelis-Menten fit", "format": "biochemical, Geobacillus stearothermophilus", "conditions": "50 mM sodium phosphate, pH 7.5, 50 °C, 10 min, 0.5 μM enzyme", "text": "initial rates, TPA by HPLC, Michaelis-Menten fit on Est30 (1TQH scaffold; wild-type carboxylesterase)", "remark": "listed apart in the source"}, "MHET hydrolysis kinetics": {"substrate": "O=C(O)c1ccc(C(=O)OCCO)cc1", "assay": "MHET hydrolysis kinetics", "format": "biochemical, unidentified prokaryotic organism", "conditions": "conditions in supplement; pH 7.5; 50.0 °C", "text": "MHET hydrolysis kinetics on LCC-ICCG | (LCC-ICCG and FAST-PETase) had weak catalytic activities with regard to the hydrolysis of MHET"}, "[4]": {"substrate": "O=C(O)c1ccc(C(=O)OCCO)cc1", "assay": "initial rates, TPA by HPLC, Michaelis-Menten fit", "format": "biochemical, Pseudideonella sakaiensis", "conditions": "50 mM sodium phosphate, pH 7.5, 50 °C"}}, "note": "Positions count from the first letter of the chain named. Names and notes keep the numbering of the source."}
{"protein": "B1", "values": [{"measurement": "Km", "setting": "[1]", "result": "1.12 ± 0.45", "unit": "mM"}, {"measurement": "kcat", "setting": "[1]", "result": "0.75 ± 0.05", "unit": "s⁻¹"}]}
{"protein": "B2", "values": [{"measurement": "Km", "setting": "[2]; M2, substrate range 2-20 mM", "result": "53.70 ± 34.77", "unit": "mM"}, {"measurement": "kcat", "setting": "[2]; M2, substrate range 2-20 mM", "result": "36 ± 18.2", "unit": "s⁻¹"}, {"measurement": "kcat/Km", "setting": "[2]; M2, substrate range 2-20 mM", "result": 670, "unit": "M⁻¹ s⁻¹"}]}
{"protein": "B3", "values": [{"measurement": "Km", "setting": "[2]; M14 (KLS-MHETase)", "result": "1.73 ± 0.24", "unit": "mM"}, {"measurement": "kcat", "setting": "[2]; M14 (KLS-MHETase)", "result": "21.8 ± 0.62", "unit": "s⁻¹"}, {"measurement": "kcat/Km", "setting": "[2]; M14 (KLS-MHETase)", "result": 12600, "unit": "M⁻¹ s⁻¹"}]}
{"protein": "B4", "values": [{"measurement": "Km", "setting": "[2]; M8 (KL-MHETase)", "result": "4.56 ± 0.75", "unit": "mM"}, {"measurement": "kcat", "setting": "[2]; M8 (KL-MHETase)", "result": "21.4 ± 1.12", "unit": "s⁻¹"}, {"measurement": "kcat/Km", "setting": "[2]; M8 (KL-MHETase)", "result": 4700, "unit": "M⁻¹ s⁻¹"}]}
{"protein": "B5", "values": [{"measurement": "Km", "setting": "[2]; M13", "result": "2.59 ± 0.41", "unit": "mM"}, {"measurement": "kcat", "setting": "[2]; M13", "result": "21 ± 0.83", "unit": "s⁻¹"}, {"measurement": "kcat/Km", "setting": "[2]; M13", "result": 8110, "unit": "M⁻¹ s⁻¹"}]}
{"protein": "B6", "values": [{"measurement": "Km", "setting": "[3]", "result": "8.98 ± 2.49", "unit": "mM"}, {"measurement": "kcat", "setting": "[3]", "result": "1.17 ± 0.14", "unit": "s⁻¹"}, {"measurement": "kcat/Km", "setting": "[3]", "result": 130, "unit": "M⁻¹ s⁻¹"}]}
{"protein": "B7", "values": [{"measurement": "Km", "setting": "[3]; M1", "result": "5.36 ± 1.13", "unit": "mM"}, {"measurement": "kcat", "setting": "[3]; M1", "result": "2.97 ± 0.21", "unit": "s⁻¹"}, {"measurement": "kcat/Km", "setting": "[3]; M1", "result": 550, "unit": "M⁻¹ s⁻¹"}]}
{"protein": "B8", "values": [{"measurement": "Km", "setting": "MHET hydrolysis kinetics", "result": "20.13 ± 3.69", "unit": "mM"}, {"measurement": "kcat", "setting": "MHET hydrolysis kinetics", "result": "1.41 ± 0.13", "unit": "s⁻¹"}]}
{"protein": "B9", "values": [{"measurement": "Km", "setting": "[4]", "result": "33.87 ± 2.82", "unit": "mM"}, {"measurement": "kcat", "setting": "[4]", "result": "2.34 ± 0.14", "unit": "s⁻¹"}]}
